# Source: the DeepSol protein solubility set
# Assay: soluble on expression in E. coli; label from the status in PepcDB or PDB records
row,Sequence,soluble on expression in E. coli
1,MSAIPENANVTVLNKNEKKARELIGKLGLKQIPGIIRVTFRKKDNQIYAIEKPEVFRSAGGNYVVFGEAKVDNFTQKLAAAQQQAQASGIMPSNEDVATKSPEDIQADMQAAAEGSVNAAAEEDDEEGEVDAGDLNKDDIELVVQQTNVSKNQAIKALKAHNGDLVNAIMSLSK,soluble
2,MSAISSFVLECAHAGRWVRGLMALQEQHLPAEPSMRVACVALAQAAAPHSWAAALCLLRPSDALRHPQEVCKTVDTIARHAQLPIDVFESSMEALLLSLQQLSQSKSHPASGSSRQLASIGPCEALGLATPSTPIQQQVFLSATQWCGWETAARLLACLPSPLPQACVERVQELRTLRHRILHDVGPFCHWGSRAALSSVIGSAGGPLPASAQGTSLAEQLERMEPSPARRYSARDRRELSWLRDHKRQRLLQRTREEEDMLTRQAAEDVAPSALSVCAALRAVTRLPSAASVTAPHVLCRHVLTLSQSRRLTPDIALLYGRAAGLCTPHSWEATVDTLNRAEVRDARLHRQLTTWVISRGSWRAALERLSQLHRDTSSAVPQRSGNNTGDLHRGGDAAASFDCVQRTAVPASYLHRVVPQVSRPWCRLVSSRHSTASLLRQIAGALAGGVRLDEVQLSEAGKEWAANGRWEAALALYYRFPLPEFQKYATRSLVTARPALPPVPSVSHPPSSCLQIGSDPLPGSPSKDSAMFYARTVLELLVPRDGVRYDSASPPRPAPPLGTYPACLVIDAAADWSEAVAVFRACVRRGTRCNPQLLSTLMRRQDLPPQELRQILKSYPAAVNDGVRRRAKEGFGVE,not soluble
3,MSAIWLSGAQAFCPAPASLPVAHVQRVVDGDTLRLTDGRNVRMIGLNTPETGKKGRSAEPFAEAAKKRLQALVDKSGGQISLRVGQQGKDHYGRTLANVYGRNGDNLEAQLLSEGLGYLVAVAPNVALVDCQQSAEREARQARRGVWRNSQVQPSDKLRKGGFAVVSGKVRSVQRNRGGIWIELHGSVVLRVAPDQAFRFDMAALERLKGRQIETRGWVIDRSGRGGLKAGQSRWMIALSHPAMLSLLEHHHHHH,not soluble
4,MSAKHPIIAVTGSSGAGTTTTSEAFRKMFNMMSIKPAWVEGDSFHRFTRPEMDVEIRKAREQGRHISYFGPQANDFPTLEEFFRQYGKVGTGQVRRYLHTFDEAVPYNQMPGTFTPWQSLPENSDVLFYEGLHGGVVDGDVNVAQHVDFLIGMVPIVNLEWIQKYVRDTRDRGHSREAVMDSIVRSMDDYLKFITPQFSRTHINFQRVPTVDTSNPLNAKGIPTLDESFVVIRFRGIKNVDFPYLLAMIDGSFMSRHNTIVVPGGKMSFAMDLIVRPLLQQLIETGKIG,not soluble
5,MSAKTKFKSPAFEPIHSAASGLFSVDAIPQETMRSFDTACLSSIKDLQPLEIKALREKLNVSQPVFARYLNTSVSTVQKWESGAKRPSGMSLKLLNVVQKHGLKVLV,not soluble
6,MSALIVSDIDGTLIDSRERIPSAVKESLAAAQRAGVSFVVATGRPARWIHPIIDQLYTPPTLCVCANGAVIYDPACDSITHRRELAPDAMRTVVRVAREALSDLGGCGVGVERAGVSAHDMPGELFMVTPDFVHSWESIEHSTVELDRVLARSAVKLLLRNDALTSEQMHRLVAPVVPADVAHVTYSMPDGLLEVMQPGVNKSSALDVVAQDLGVDPADAIAFGDMLNDLEMIRWAGTGVAMGNACDQLQRAADVVAPTNDEAGIAVVLREWLQG,not soluble
7,MSANDFKPETWTSSANEALRVSIVGENAVQFSPLFTYPIYGDSEKIYGYKDLIIHLAFDSVTFKPYVNVKYSAKLGDDNIVDVEKKLLSFLPKDDVIVRDEAKWVDCFAEERKTHNLSDVFEKVSEYSLNGEEFVVYKSSLVDDFARRMHRRVQIFSLLFIEAANYIDETDPSWQIYWLLNKKTKELIGFVTTYKYWHYLGAKSFDEDIDKKFRAKISQFLIFPPYQNKGHGSCLYEAIIQSWLEDKSITEITVEDPNEAFDDLRDRNDIQRLRKLGYDAVFQKHSDLSDEFLESSRKSLKLEERQFNRLVEMLLLLNNS,soluble
8,MSANLPPAFKPIAHYIKIANENASRDPVIYYWSLLCMALGPVETTFDEISWKLLQTSIRLEKDHINDRDSLREYIDEPGGVVNNCQRAQNISMEIEQKNVSCEKLREKIAKINQKILIGKGKLSEVNEELSKKQNFEESLKQKIEIMELQINKNQSKKDKEVKSINVLIRLVAYRKLTLIKEVMDLFKVKIDGGPASEAITTKNCQCQLIDTIRGLHIPQITHIFNHSEAPTLTALQNLTHLFNVICKVLHFAPKYPILTNLQIINPIDQKSSIFTEKCWKKKADREKLIEGMSWLSKNISHLRESCGIPTMATDRILGTLEEWIRLVIRKETVFERPINSIFSPANLLIDYQIPNISYHS,not soluble
9,MSANVDLNQRPDYDAVLQDIADYVLDYRIDSTEALDTARNCLMDTLGCGLLALRFPECTKHLGPLVEGTLVPHGARVPGTSFRLDPVKAAWDIGCIVRWLDYNDTWLAAEWGHPSDNLGGILAVADHLSQKRLANGEAPLSMRQVLEAMIMAHEIQGVIALENSFNRVGLDHVLLVKVASTAVCAKLMGADREQLLAALSHAFVDGQALRTYRHAPNAGSRKSWAAGDATSRGVRLADIALRGEMGIPGVLSAPQWGFYDVLFSHTSKDLATKPEDKRRFSFPQGYGSYVMENVLFKISFPAEFHAQTAAEAAVRLHPLVKDRLQRISRIVITTHESAIRIISKVGPLANPADRDHCLQYMTAVPLIFGDLVAEHYEDAFHAAHPLIDRLREKMEIVEEPRYSREYLEADKRSIANAVEVFFDDGSSTGQVAVEYPLGHRRRRAEGIPLLQEKFKANLATRFPPQRCQRIFDLCSHQASLEATPVNRFMDLLAI,not soluble
10,MSAQASRQKKSDQEQRAADQALLNAAIEDNAMEQDENFTVIDKLESSGISSGDISKLKEAGYYTYESLAFTTRRELRNVKGISDQKAEKIMKEAMKFVQMGFTTGAEVHVKRSQLVQIRTGSASLDRLLGGGIETGSITEVYGEYRTGKTQLCHSLAVLCQLPIDMGGGEGKCMYIDTNATFRPERIIAIAQRYNMDSAHVLENIAVARAYNSEHLMALIIRAGAMMSESRYAVVIVDCATAHFRNEYTGRGDLAERQMKLSAFLKCLAKLADEYGVAVIITNQVVAQVDGGASMFQADAKKPIGGHIIAHMSTTRLYLRKGKGENRVAKMVQSPNLPEAEATYSITNHGIEDARED,not soluble
11,MSAQRIQKVDILRYDPANDAEPHMQRFEVPFDETMSVLDAIGYVKDHLDKDLSYRWSCRMAICGSCGIMVNGVPKLACKSFLRDYPEGVKIEPLANFPIEKDLIVDMTPFIERLEAIKPYIIGNDRKPEDGTNLQTPEQMARYKQFAGCINCGLCYAACPQFGLNPEFLGPAALTLAHRYNLDSRDNGKAERMKLINGDNGAWGCTFVGYCSEVCPKHVDPAAAVNQGKVESSLDFVIAMLNPDGSPKKVEA,not soluble
12,MSAQYDLYETPDIKQTGEKQPLHPRIVPKGTIGQDEFLDRVHKFTGISRSLLAGAMQSFQNELKDLLANGWIVELGEIGYFSVSLQGPPVMHKKDVRAQSIKLKNINYLPTKQFKREVGYDMRLERTESLTRPKGNGRSEAECLALITAHLEKYPCMTRTDYCHMTGHDKKRALKELNAFIEKEILMRYGAGKQVVYAKKMI,not soluble
13,MSASAPAAEGEGTPTQPASEKEPEMPGPREESEEEEDEDDEEEEEEEKEKSLIVEGKREKKKVERLTMQVSSLQREPFTIAQGKGQKLCEIERIHFFLSKKKTDELRNLHKLLYNRPGTVSSLKKNVGQFSGFPFEKGSVQYKKKEEMLKKFRNAMLKSICEVLDLERSGVNSELVKRILNFLMHPKPSGKPLPKSKKTCSKGSKKERNSSGMARKAKRTKCPEILSDESSSDEDEKKNKEESSDDEDKESEEEPPKKTAKREKPKQKATSKSKKSVKSANVKKADSSTTKKNQNSSKKESESEDSSDDEPLIKKLKKPPTDEELKETIKKLLASANLEEVTMKQICKKVYENYPTYDLTERKDFIKTTVKELIS,soluble
14,MSASEFTLVPTTESDRTYIARLNFLTDVFGDEHADIGADFLEDYRFYVKQWDPTNGGLIAWSPKMIPAGGAWLVWGNNNDHGYGYVSEDIPEVAIAIEPRYRGKGVGSILLNKSLELARTLGAPGLSLSVDDGNPRAKKLYERLGFQHIRHSDAGFSIMCYRF,not soluble
15,MSASSLLEQRPKGQGNKVQNGSVHQKDGLNDDDFEPYLSPQARPNNAYTAMSDSYLPSYYSPSIGFSYSLGEAAWSTGGDTAMPYLTSYGQLSNGEPHFLPDAMFGQPGALGSTPFLGQHGFNFFPSGIDFSAWGNNSSQGQSTQSSGYSSNYAYAPSSLGGAMIDGQSAFANETLNKAPGMNTIDQGMAALKLGSTEVASSVPKVVGSAVGSGSITSNIVASSSLPPATIAPPKPASWADIASKPAKQQPKLKTKNGIAGSSLPPPPIKHNMDIGTWDNKGPVAKAPSQALVQNIGQPTQGSPQPVGQQANNSPPVAQASVGQQTQPLPPPPPQPAQLSVQQQAAQPTRWVAPRNRGSGFGHNGVDGNGVGQSQAGSGSTPSEPHPVLEKLRSINNYNPKDFDWNLKHGRVFIIKSYSEDDIHRSIKYNIWCSTEHGNKRLDAAYRSMNGKGPVYLLFSVNGSGHFCGVAEMKSAVDYNTCAGVWSQDKWKGRFDVRWIFVKDVPNSQLRHIRLENNENKPVTNSRDTQEVPLEKAKQVLKIIASYKHTTSIFDDFSHYEKRQEEEESVKKERQGRGK,soluble
16,MSATAKHDSNASPNSDSEDGHHHNNKKECAIEYLKARLNSASAVACGYLQAFVSKTQDFAKVCFLELQNPVVLVNLLLHSSVVCYLCNGYANHNARFLKGKPNSTVLATTAGALGLLTLDGIISKKYYSRYDKK,soluble
17,MSCINLPTVLPGSPSKTRGQIQVILGPMFSGKSTELMRRVRRFQIAQYKCLVIKYAKDTRYSSSFCTHDRNTMEALPACLLRDVAQEALGVAVIGIDEGQFFPDIVEFCEAMANAGKTVIVAALDGTFQRKPFGAILNLVPLAESVVKLTAVCMECFREAAYTKRLGTEKEVEVIGGADKYHSVCRLCYFKKASGQPAGPDNKENCPVPGKPGEAVAARKLFAPQQILQCSPAN,not soluble
18,MSCSSSSMLFLVLIATTVLIAESRVFYNRFDGGLSSDRFMEQKRDGAEASYDYDANQVIRNTMKRNRQCLLNAGLSQGCDFSDLLHAQTQARKFMSFAGPGK,not soluble
19,MSCVHYKFSSKLNYDTVTFDGLHISLCDLKKQIMGREKLKAADSDLQITNAQTKEEYTDDNALIPKNSSVIVRRIPIGGVKSTSKTYVISRTEPVMGTTKAVCKNTITLFLHNCFYLYNVSVT,not soluble
20,MSDAGGDVQVAPAAVAQGPMDKEGALRAVLRAAHHADGLAKGLHETCKALDKREAHFCVLAENCDEPQYVKLVETLCAEHQIPLIKVADKKIIGEYCGLCKYDKEGKARKVVGCSSAVVTNWGNEEQGRAILTDYFASKN,not soluble
21,MSDDKFDAIVVGAGVAGSVAALVMARAGLDVLVIERGDSAGCKNMTGGRLYAHTLEAIIPGFAVSAPVERKVTREKISFLTEESAVTLDFHRGQPDVPQHASYTVLRNRLDPWLMEQAEQAGAQFIPGVRVDALVREGNKVTGVQAGDDILEANVVILADGVNSMLGRSLGMVPASDPHHYAVGVKEVIGLTPEQINDRFNITGEEGAAWLFAGSPSDGLMAGGFLYTNKDSISLGLVCGLGDIAHAQKSVPQMLEDFKQHPAIRPLISGGKLLEYSAHMVPEGGLAMVPQLVNEGVMIVGDAAGFCLNLGFTVRGMDLAIASAQAAATTVIAAKERADFSANSLAQYKRELEQSCVMRDMQHFRKIPALMENPRLFSQYPRMVADIMNEMFTIDGKPNQPVRKMIMGHAKKIGLINLLKDGIKGATAL,not soluble
